Assay results published in paper PMC8617759, “Characterization of a Novel L-Asparaginase from Mycobacterium gordonae with Acrylamide Mitigation Potential” (Foods, 2021).

System: NC(=O)C[C@H](N)C(=O)O
Experiment: Nessler ammonia assay, OD436; Lineweaver-Burk
Type: biochemical, Mycobacterium gordonae
Details: 50 mM PBS pH 8.0, 37 °C, 2 min, 1-20 mM substrate

## GmASNase (Mycobacterium gordonae L-asparaginase) (Mycobacterium gordonae)
  Km: 6.025 mM
  kcat: 11,864.71 min^-1
